Patent CN114075280A (DONGGUAN PENGZHI BIOTECHNOLOGY CO LTD, dated 2022)

Biological target: NGAL抗原 (中性粒细胞明胶酶相关载脂蛋白, Neutrophil gelatinase-associated lipocalin) (UniProt P80188 21-198)
Assay: BLI, antibody captured on AMC sensor, NGAL in solution

Chain of NGAL抗原 (中性粒细胞明胶酶相关载脂蛋白, Neutrophil gelatinase-associated lipocalin) (P80188 21-198 limits assumed): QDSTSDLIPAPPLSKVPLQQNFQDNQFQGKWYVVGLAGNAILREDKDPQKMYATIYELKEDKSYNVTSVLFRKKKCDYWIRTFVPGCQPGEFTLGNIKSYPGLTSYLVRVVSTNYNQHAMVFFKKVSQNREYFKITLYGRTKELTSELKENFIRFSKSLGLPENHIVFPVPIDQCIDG

Kd: 14.8 nM | koff: 0.000313 s⁻¹ | kon: 21200 M⁻¹ s⁻¹
B1: 实施例1的抗NGAL单克隆抗体(WT) (antibody, V domains shown)
VH: QIQLKESGPGLVQPSETLSLTCTVSGASVTSYSISWVRQPSGKGPEWMGRMYYNGDTLYNSVIKSRLSISRDTSKNQVFLKMNSLQTDDTGTYYCARDPILPPYFDYWGQGVMVTVSS
VL: DVQMTQSPSYLAASPGESVSISCKFSKSLSNYVAWYQQKPGEAYKLLTHSASTVQSGIPSRISGSGSGTDFTLTIRSLEPEEFGLYYCQQHYENPYTFGAGTKLELKR
